For data set [1], the target named is Rhodobacter capsulatus FdsC-C107A (R. capsulatus). Put plainly: SEC; size exclusion chromatography of the Ni-NTA purified chaperones alone; data not shown.
The target in data set [2] is Rhodobacter capsulatus FdsC-C104A/C107A (R. capsulatus). The description is as above.
For data set [3], the target named is Rhodobacter capsulatus FdsC-C104A (R. capsulatus). The description is as above.
Data set [4] addresses Rhodobacter capsulatus FdsC (R. capsulatus). The description is as above.
Data set [5] deals with the molecule itself. Described as above.
In data set [6] the target is T1, Escherichia coli L-cysteine desulfurase IscS (E. coli, UniProt P0A6B7 1-404).
T1 construct: IscS, L-cysteine desulfurase of Escherichia coli; iscS gene cloned into NcoI/BamHI sites of pET15b (pSL209); also called E. coli IscS; source: recombinant (plasmid pSL209), expressed and purified as described previously [33, 46]
In words: SEC; 20 μM IscS mixed with 40 μM FdhD or FdsC (or double cysteine variant), 30 min at room temperature, Superdex 200 (Increase), 100 mM potassium phosphate pH 8.0 (legend: with 100 mM NaCl, 10 mM β-mercaptoethanol), 280 nm; fractions on 15% SDS-PAGE. The note with it: both partners purified.

T1 sequence (P0A6B7 whole entry): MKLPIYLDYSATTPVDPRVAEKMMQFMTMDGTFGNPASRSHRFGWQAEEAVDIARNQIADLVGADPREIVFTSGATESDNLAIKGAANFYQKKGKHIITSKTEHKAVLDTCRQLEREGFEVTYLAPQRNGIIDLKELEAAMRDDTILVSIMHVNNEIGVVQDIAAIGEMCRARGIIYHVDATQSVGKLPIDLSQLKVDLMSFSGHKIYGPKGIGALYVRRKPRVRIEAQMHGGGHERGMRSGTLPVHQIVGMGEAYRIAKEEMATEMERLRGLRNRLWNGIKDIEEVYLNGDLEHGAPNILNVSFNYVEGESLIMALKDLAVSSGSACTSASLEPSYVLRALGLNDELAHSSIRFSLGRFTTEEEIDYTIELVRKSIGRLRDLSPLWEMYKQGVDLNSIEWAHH

“Rhodobacter capsulatus FdsC-C107A (natural protein)” showed a stoichiometry N in data set [1] of 2.
In the case of “Rhodobacter capsulatus FdsC-C104A/C107A (natural protein)”, in data set [2], the stoichiometry N was found to be 2.
The molecule “Rhodobacter capsulatus FdsC-C104A (natural protein)” came in with a stoichiometry N in data set [3] of 2.
In data set [4], “Rhodobacter capsulatus FdsC (natural protein)” yielded a stoichiometry N of 2.

B1: Escherichia coli FdhD (natural protein, E. coli)
chain: MKKTQRKEIENVTNITGVRQIELWRRDDLQHPRLDEVAEEVPVALVYNGISHVVMMASPKDLEYFALGFSLSEGIIESPRDIFGMDVVPSCNGLEVQIELSSRRFMGLKERRRALAGRTGCGVCGVEQLNDIGKPVQPLPFTQTFDLNKLDDALRHLNDFQPVGQLTGCTHAAAWMLPSGELVGGHEDVGRHVALDKLLGRRSQEGESWQQGAVLVSSRASYEMVQKSAMCGVEILFAVSAATTLAVEVAERCNLTLVGFCKPGRATVYTHPQRLSN
notes: FdhD, FDH-specific chaperone of Escherichia coli; fdhD gene in pTrcHis (pNB10); His6-tagged FdhD has a molecular mass of 32.7 kDa; also called FdhD wild-type; FdhD WT; source: E. coli ΔfdhD strain (plasmid pNB10), purified (Ni-NTA)
B1: the “stoichiometry N” value in data set [5] amounted to 2. Also, the binding result in data set [6] is recorded as “binds”.

B2: Escherichia coli FdhD-C124A (natural protein, E. coli)
chain: MKKTQRKEIENVTNITGVRQIELWRRDDLQHPRLDEVAEEVPVALVYNGISHVVMMASPKDLEYFALGFSLSEGIIESPRDIFGMDVVPSCNGLEVQIELSSRRFMGLKERRRALAGRTGCGVAGVEQLNDIGKPVQPLPFTQTFDLNKLDDALRHLNDFQPVGQLTGCTHAAAWMLPSGELVGGHEDVGRHVALDKLLGRRSQEGESWQQGAVLVSSRASYEMVQKSAMCGVEILFAVSAATTLAVEVAERCNLTLVGFCKPGRATVYTHPQRLSN
notes: FdhD of Escherichia coli with C124A; fdhD^C124A gene in pTrcHis (pNB12); Made from pNB10 by site-directed mutagenesis; also called His6-FdhD^C124A; source: E. coli ΔfdhD strain (plasmid pNB12), purified (Ni-NTA)
As for B2, the “stoichiometry N” value in data set [5] worked out at 2.

B3: Escherichia coli FdhD-C121A (natural protein, E. coli)
chain: MKKTQRKEIENVTNITGVRQIELWRRDDLQHPRLDEVAEEVPVALVYNGISHVVMMASPKDLEYFALGFSLSEGIIESPRDIFGMDVVPSCNGLEVQIELSSRRFMGLKERRRALAGRTGAGVCGVEQLNDIGKPVQPLPFTQTFDLNKLDDALRHLNDFQPVGQLTGCTHAAAWMLPSGELVGGHEDVGRHVALDKLLGRRSQEGESWQQGAVLVSSRASYEMVQKSAMCGVEILFAVSAATTLAVEVAERCNLTLVGFCKPGRATVYTHPQRLSN
notes: FdhD of Escherichia coli with C121A; fdhD^C121A gene in pTrcHis (pNB11); Made from pNB10 by site-directed mutagenesis; also called His6-FdhD^C121A; source: E. coli ΔfdhD strain (plasmid pNB11), purified (Ni-NTA)
B3: the “stoichiometry N” value in data set [5] stood at 2.

B4: Escherichia coli FdhD-C121A/C124A (natural protein, E. coli)
chain: MKKTQRKEIENVTNITGVRQIELWRRDDLQHPRLDEVAEEVPVALVYNGISHVVMMASPKDLEYFALGFSLSEGIIESPRDIFGMDVVPSCNGLEVQIELSSRRFMGLKERRRALAGRTGAGVAGVEQLNDIGKPVQPLPFTQTFDLNKLDDALRHLNDFQPVGQLTGCTHAAAWMLPSGELVGGHEDVGRHVALDKLLGRRSQEGESWQQGAVLVSSRASYEMVQKSAMCGVEILFAVSAATTLAVEVAERCNLTLVGFCKPGRATVYTHPQRLSN
notes: FdhD of Escherichia coli with C121A and C124A; fdhD^C121A/C124A gene in pTrcHis (pNB13); Made from pNB10 by site-directed mutagenesis; also called FdhD-C121/C124A; double variant; source: E. coli ΔfdhD strain (plasmid pNB13), purified (Ni-NTA)
For the molecule B4, the “stoichiometry N” value in data set [5] is 2. Also, the binding result in data set [6] is listed as “binds”.
